Test results as given in patent US8729028B2, “Noggin-derived peptide and use thereof” (Caregen Co., Ltd., priority 2009, dated 2014).
Where no end group is shown, it is not given here. The star is where a group is joined. Biotin = O=C1N[C@H]2[C@H](CS[C@H]2CCCCC(=O)*)N1

Experiments:
rh-BMP4 protein [1] = target: T1, rh-BMP4 protein (Homo sapiens, UniProt P12644); assay: Streptavidin chromatography with SDS-PAGE and western blot (immunobinding to BMP4); assay type: binding; conditions: streptavidin column, elution with NaCl, western blot with anti-BMP4 antibody (FIG. 8b)
T1 construct: purchased R&D Systems, Inc., USA
T1 sequence (P12644 293-408): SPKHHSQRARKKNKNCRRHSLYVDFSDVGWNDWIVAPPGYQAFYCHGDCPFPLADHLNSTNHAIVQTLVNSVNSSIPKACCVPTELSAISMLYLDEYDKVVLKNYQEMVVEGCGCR
Description: The N-terminus of the peptide prepared in Synthesis Example was modified with biotin (Sigma, USA). For streptavidin chromatography, the biotinylated peptide was loaded in a column packed with streptavidin-attached resin and equilibrated with 20 mM sodium phosphate buffer. Then, after flowing rh-BMP4 protein (R&D Systems, Inc., USA) through the column, 200 mM sodium phosphate buffer was flown to flush unbound protein and the protein bound to the biotinylated peptide was fractionated by eluting with 0.2 M NaCl. The eluate was analyzed by SDS-PAGE (see FIG. 8a) and it was confirmed whether the BMP4 protein binds with the biotinylated peptide by western blotting using anti-BMP4 antibody (Santa Cruz, USA) (see FIG. 8b).

HaCaT keratinocytes = assay: SRB colorimetric assay of cellular growth, keratinocytes; assay type: cell-based; conditions: peptide 100 ng/mL, 72 hours, SRB absorbance 590 nm and microscopy (FIGS. 2a, 3)
Description: (§1) To analyze the growth factor-like effect of the peptide synthesized in Synthesis Example, sulforhodamine B (SRB) calorimetric assay was carried out using HaCaT keratinocytes (Korean Cell Line Bank) and NIH3T3 fibroblasts (Korean Cell Line Bank) according to Rizzino et al.'s method (Rizzino et al. Cancer Res. 48: 4266 (1988)).
(§2) HaCaT keratinocytes and NIH3T3 fibroblasts were cultured respectively in a 250-mL tissue culture flask in Eagle's minimal essential media (EMEM; Gibco, U.S.A.) containing 10% fetal bovine serum (FBS; Sigma). The cultured cells were treated with 0.25% trypsin solution to detach the cells from the bottom of the culture flask and centrifuged to collect cell pellets. They were resuspended in FBS-free EMEM and added to each well of a 96-well tissue culture plate, with 4×10^3 cells per well. The cells were cultured under 7% CO2 for 24 hours at 37° C. 24 hours later, the medium was changed with fresh, FBS-containing medium and the cells were incubated for 72 hours under the same conditions as described above with blank sample as reference or with the sterilized synthetic peptide (100 ng/mL) dissolved in water and 10% DMSO. After removing the supernatant, the cells were washed once with phosphate buffered saline (PBS). […] In addition, absorbance was measured at 590 nm to analyze cell proliferation.

NIH3T3 fibroblasts = assay: SRB colorimetric assay of cellular growth, fibroblasts; assay type: cell-based; conditions: NIH3T3, peptide 100 ng/mL, 72 hours, SRB absorbance 590 nm and microscopy (FIGS. 2b, 3)
Description: as §1, §2

HaCaT cells = assay: Laminin and hyaluronic acid production (ELISA kits); assay type: cell-based; conditions: 72 hours after treatment
Description: HaCaT cells cultured for 48 hours were treated with the peptide synthesized in Synthesis Example. 72 hours later, the level of laminin and hyaluronic acid was measured as an indicator to show the improvement in skin wrinkles. The measurement was made using a laminin ELISA kit (Takara, Japan) and a hyaluronic acid ELISA kit (Takara, Japan).

BMP-4 = target: T2, BMP-4 (Homo sapiens, UniProt P12644); assay: Melanin production in α-MSH-induced, BMP-4-treated melanocytes (antagonistic activity against BMP-4); assay type: cell-based; conditions: for melanin production: C57BL/6 mouse melanocytes, 200 μg/mL α-MSH, 1 μg/mL BMP-4, cultured 3 days, observed with naked eyes (FIG. 5)
T2 construct: purchased R&D Systems, Inc., USA
T2 sequence (P12644 293-408): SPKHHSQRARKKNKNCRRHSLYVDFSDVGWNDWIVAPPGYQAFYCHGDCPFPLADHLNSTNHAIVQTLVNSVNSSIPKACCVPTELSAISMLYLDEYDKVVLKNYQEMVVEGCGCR
Description: In order to investigate the antagonistic activity of the peptide synthesized in Synthesis Example against the growth factor BMP-4, C57BL/6 mouse melanocytes (Jung Ang Lab. Animal, Korea) were cultured and melanin production was induced with α-melanocyte stimulating hormone (α-MSH; Sigma). Then, after treating with BMP-4 (R&D Systems, Inc., USA) and then immediately with the synthesized peptide at different concentrations, it was checked whether the melanin production inhibited by BMP was activated again. The mouse melanocytes were cultured using DMEM (Sigma) containing 10% FBS (Sigma) at 37° C. under 5% CO2. After culturing the cells on a 24-well plate at 1×10^5 cells/well and confirming attachment of the cells, the cells were treated only with a solvent (control), with 200 μg/mL α-MSH (positive control) or with 1 μg/mL BMP-4. Then, the cells were treated with the peptide of SEQ ID NO: 1. After adding the test substance to each dish, the cells were cultured for 3 days. The test substance had been prepared by dissolving the ingredients in a solvent and diluting to the test concentration using a 5:3:2 mixture solvent of propylene glycol:ethanol:purified water. After removing the medium by centrifugation, the production of melanin could be observed with naked eyes.
For more accurate measurement, cells were washed with PBS and lysed with 1 N sodium hydroxide. Then, after measuring absorbance at 400 nm, inhibition of melanin production was calculated according to the Dooley's method (Dooley, T. P. et al., Skin Pharmacol. 7: 188-200 (1994)), and the result was shown in FIG. 6. The result shown in FIG. 6 coincides with that of FIG. 5.

rh-BMP4 protein [2] = target: T1, rh-BMP4 protein; assay: Biacore binding of peptide to immobilised BMP4; conditions: CM5 sensor chip, 6000 RU rh-BMP4, peptide 4-1000 μg/mL (FIG. 7)
Description: (§3) In order to investigate whether the peptide synthesized according to the present disclosure binds to the BMP protein, the Biacore instrument allowing the detection of binding between drugs and receptors was used.
(§4) 6000 response units (RU) of rh-BMP4 protein (R&D Systems, Inc., USA) was fixed to a commercially available CM5 sensor chip (Biacore, Sweden) by amination. Then, HBS-EP buffer (Biacore, Sweden) was flown at a rate of 5 μL/min to activate the BMP4 protein on the CM5 sensor chip. After optimization for reaction, the synthesized peptide was flown at different concentrations (1000 μg/mL, 500 μg/mL, 250 μg/mL, 125 μg/mL, 62.5 μg/mL, 31.3 μg/mL, 15.6 μg/mL, 7.8 μg/mL, 4 μg/mL). The binding between BMP4 and the synthetic peptide could be identified from the increase in RU value.

[3] = Thermal stability at 37° C. in phosphate buffer, HPLC quantification; assay type: physicochemical; conditions: 0.11 mg/mL phosphate buffer, days 0-70, compared with reference Noggin (FIG. 9)
Description: The peptide prepared in Synthesis Example and a reference growth factor (Noggin, FGF-10) purchased from NIBSC (UK) were prepared to 0.11 mg/mL phosphate buffer solutions. 1 mL of each prepared solution was put in a glass vial and kept at 37° C. The solution was sampled on days 0, 5, 10, 20, 30, 40 and 70. After centrifugation to remove any denatured peptide or protein, the supernatant was subjected to HPLC for quantification (FIG. 9).

C57BL/6 mouse = assay: Hair growth on depilated back skin of mouse; assay type: in vivo; conditions: C57BL/6 mouse back, 10 μL of 1 μg/μL on days 0, 2 and 4, observed for 10 days, against PBS (FIG. 10)
Description: In order to investigate the hair growth promoting effect of the peptide synthesized in Synthesis Example, hair of the back of a mouse (C57BL/6, Jung Ang Lab. Animal, Korea) was partially removed using hair removal cream. 10 μL of the peptide of SEQ ID NO: 1 (1 μg/μL) was administered or applied on the upper portion of the back of the mouse, and 10 μL of PBS was administered or applied on the lower portion of the back of the mouse, on days 0, 2 and 4.

[4] = target: T3, rh-BMP4 protein (R&D Systems, Inc., USA) (human, UniProt P12644 293-408); assay: SPR (Biacore), rh-BMP4 fixed on a CM5 chip, peptide flown at 4-1000 µg/mL
T3 construct: Bought protein; also called BMP protein
T3 sequence (looked up): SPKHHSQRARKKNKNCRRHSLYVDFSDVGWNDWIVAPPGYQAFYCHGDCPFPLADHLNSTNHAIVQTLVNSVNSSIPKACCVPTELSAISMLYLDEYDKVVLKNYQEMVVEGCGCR
Description: as §3, §4

Molecule: biotinylated peptide: The N-terminus of the peptide prepared in Synthesis Example was modified with biotin (Biotin-ELIEHGGGRPAD)
- binding of BMP4 protein to peptide (rh-BMP4 protein [1]): bound

Molecule: Glu-Leu-Ile-Glu-His (SEQ ID NO:2)-Linker-Arg-Pro-Ala-Asp (SEQ ID NO:3) peptide (linker=Gly-Gly-Gly) (ELIEHGGGRPAD; listed as Homo sapiens) [SEQ ID NO: 1, noggin-derived peptide]
- growth of keratinocytes (HaCaT keratinocytes): promote the growth
- growth of fibroblasts (NIH3T3 fibroblasts): promote the growth
- production of hyaluronic acid (HaCaT cells; hyaluronic acid ELISA kit (FIG. 4b)): increases the production
- production of laminin (HaCaT cells; laminin ELISA kit (FIG. 4a)): increases the production
- melanin production (BMP-4): melanin production comparable to that of the α-MSH-treated group
- BMP-4 activity (BMP-4; inferred from restored melanin production in BMP-4-treated mouse melanocytes (FIG. 5)): appropriately inhibits the BMP-4 activity
- binding to BMP4 (increase in RU value) (rh-BMP4 protein [2]): very strong binding ability
- binding of BMP4 protein to peptide (rh-BMP4 protein [1]): very strongly binds
- thermal stability [3]: much superior thermal stability to the existing noggin peptide
- hair growth (C57BL/6 mouse): effective in promoting hair growth

Molecule: α-melanocyte stimulating hormone [α-MSH, reference compound]
- melanin production (BMP-4): abrupt increase in melanin production

B1: Glu-Leu-Ile-Glu-His (SEQ ID NO:2)-Linker-Arg-Pro-Ala-Asp (SEQ ID NO:3) peptide (linker=Gly-Gly-Gly) (SEQ ID NO:1) (peptide)
peptide: ELIEHGGGRPAD
notes: Made by solid-phase synthesis; The synthesis text describes an acetylation step with acetic anhydride after the last Fmoc removal; However, the printed theoretical weight of 1250.35 matches the peptide without an acetyl group, so no N-terminal acetyl is entered; also called synthesized peptide
- binding result [4]: binds
